Test results reported in patent publication US20220220224A1 (Hoffmann-La Roche, published 2022).
Positions count from the first letter of the chain named.

B1: Farletuzumab (antibody, V domains shown)
VH: EVQLVESGGGVVQPGRSLRLSCSASGFTFSGYGLSWVRQAPGKGLEWVAMISSGGSYTYYADSVKGRFAISRDNAKNTLFLQMDSLRPEDTGVYFCARHGDDPAWFAYWGQGTPVTVSS
VL: DIQLTQSPSSLSASVGDRVTITCSVSSSISSNNLHWYQQKPGKAPKPWIYGTSNLASGVPSRFSGSGSGTDYTFTISSLQPEDIATYYCQQWSSYPYMYTFGQGTKVEIKR
B2: 15B6 Fab (Fab, V domains shown)
VH: QVQLVQSGAEVKKPGASVKVSCKASGYTFTSYYMHWVRQAPGQGLEWMGIINPSGGSTSYAQKFQGRVTMTRDTSTSTVYMELSSLRSEDTAVYYCARNYYIGIVPFDYWGQGTLVTVSS
VL: QAVVTQEPSLTVSPGGTVTLTCGSSTGAVTTSNYANWVQEKPGQAFRGLIGGTNKRAPGTPARFSGSLLGGKAALTLSGAQPEDEAEYYCALWYSNLWVFGGGTKLTVL
notes: bacterial Fab
B3: 16D5 IgG (antibody, V domains shown)
VH: not shown
VL: B2 VL
notes: human IgG1
B4: 16F12 Fab (Fab, V domains shown)
VH: B2 VH with Y100F, Y101T, I102V, G103L, I104R
VL: B2 VL
notes: bacterial Fab
B5: 21A5 IgG (antibody, V domains shown)
VH: not shown
VL: B2 VL
notes: human IgG1

Assays:
[1] = target: T1, recombinant biotinylated monomeric Fc fusion of cynomolgus Folate Receptor 1 (cy FolR1 ECD-AcTev-Fcknob-Avi … (cynomolgus, UniProt P0DOX5 223-449 = IgG part, biotin on the C-terminal Avi tag)); assay: SPR Biacore, affinity (monovalent), antibody captured via anti-Fab
T1 construct: also called cyFolR1-Fc; cyno FolR1
Procedure: (§1) Binding of FolR1 binders as IgG or in the T-cell bispecific format to different recombinant folate receptors (human FolR1, 2 and 3, murine FolR1 and cynomolgus FolR1; all as Fc fusions) was assessed by surface plasmon resonance (SPR). All SPR experiments were performed on a Biacore T200 at 25° C. with HBS-EP as running buffer (0.01 M HEPES pH 7.4, 0.15 M NaCl, 3 mM EDTA, 0.005% Surfactant P20, Biacore, Freiburg/Germany).
For affinity measurement, direct coupling of around 6000-7000 resonance units (RU) of the anti-human Fab specific antibody (Fab capture kit, GE Healthcare) was performed on a CM5 chip at pH 5.0 using the standard amine coupling kit (GE Healthcare). Anti-FolR1 IgGs or T cell bispecifics were captured at 20 nM with a flow rate of 10 μl/min for 20 or 40 sec, the reference flow cell was left without capture. Dilution series (6.17 to 500 nM or 12.35 to 3000 nM) of human or cyno Folate Receptor 1 Fc fusion were passed on all flow cells at 30 μl/min for 120 or 240 sec to record the association phase. The dissociation phase was monitored for 240 s and triggered by switching from the sample solution to HBS-EP. The chip surface was regenerated after every cycle using a double injection of 60 sec 10 mM Glycine-HCl pH 2.1 or pH 1.5. Bulk refractive index differences were corrected for by subtracting the response obtained on the reference flow cell 1. The affinity constants for the interactions were derived from the rate constants by fitting to a 1:1 Langmuir binding using the Bia Evaluation software (GE Healthcare).

[2] = target: T1, recombinant biotinylated monomeric Fc …; assay: SPR Biacore, avidity (bivalent, apparent KD), antigen-Fc on SA chip
Procedure: as §1
Recombinant biotinylated monomeric Fc fusions of human, cynomolgus and murine Folate Receptor 1 (FolR1-Fc) were directly coupled on a SA chip using the standard coupling instruction (Biacore, Freiburg/Germany). The immobilization level was about 300-400 RU. The anti-FolR1 IgGs or T cell bispecifics were passed at a concentration range from 2.1 to 500 nM with a flow of 30 μL/minutes through the flow cells over 180 seconds. The dissociation was monitored for 600 seconds. Bulk refractive index differences were corrected for by subtracting the response obtained on reference flow cell immobilized with recombinant biotinylated IL2 receptor Fc fusion. […] The binding curves resulting from the bivalent binding of the IgGs or T cell bispecifics were approximated to a 1:1 Langmuir binding and fitted with that model (which is not correct, but gives an idea of the avidity). The apparent avidity constants for the interactions were derived from the rate constants of the fitting using the Bia Evaluation software (GE Healthcare).

[3] = target: T2, recombinant biotinylated monomeric Fc fusion of human Folate Receptor 1 (huFolR1 ECD-AcTev-Fcknob-Avi tag … (human, UniProt P0DOX5 223-449 = IgG part, biotin on the C-terminal Avi tag)); assay: SPR ProteOn, Fab analyte on immobilized antigen-Fc
T2 construct: also called huFolR1-Fc; human FolR1-Fc
Procedure: (§2) Immobilization of antigens (ligand): Recombinant antigens were diluted with PBST (10 mM phosphate, 150 mM sodium chloride pH 7.4, 0.005% Tween 20) to 10 μg/ml, then injected at 30 μl/minute in vertical orientation. Injection of analytes: For ‘one-shot kinetics’ measurements, injection direction was changed to horizontal orientation, two-fold dilution series of purified Fab (varying concentration ranges) were injected simultaneously along separate channels 1-5, with association times of 200 s, and dissociation times of 600 s. Buffer (PBST) was injected along the sixth channel to provide an “in-line” blank for referencing. Association rate constants (kₒₙ) and dissociation rate constants (koff) were calculated using a simple one-to-one Langmuir binding model in ProteOn Manager v3.1 software by simultaneously fitting the association and dissociation sensorgrams. The equilibrium dissociation constant (KD) was calculated as the ratio koff/kₒₙ.

[4] = target: T1, recombinant biotinylated monomeric Fc …; assay: SPR ProteOn, Fab analyte on immobilized antigen-Fc
Procedure: as §2

[5] = target: T3, recombinant biotinylated monomeric Fc fusion of murine Folate Receptor 1 (mu FolR1 ECD-AcTev-Fcknob-Avitag … (murine, UniProt P0DOX5 223-449 = IgG part, biotin on the C-terminal Avi tag)); assay: SPR ProteOn, Fab analyte on immobilized antigen-Fc
T3 construct: also called muFolR1-Fc; murine FolR1
Procedure: as §2

[6] = target: T4, recombinant biotinylated monomeric Fc fusion of human Folate Receptor 2 (hu FolR2 ECD-AcTev-Fcknob-Avi tag … (human, UniProt P0DOX5 223-449 = IgG part, biotin on the C-terminal Avi tag)); assay: SPR ProteOn, Fab analyte on immobilized antigen-Fc
T4 construct: also called FolR2-Fc
Procedure: as §2

[7] = target: T5, recombinant biotinylated monomeric Fc fusion of human Folate Receptor 3 (hu FolR3 ECD-AcTev-Fcknob-Avi tag … (human, UniProt P0DOX5 223-449 = IgG part, biotin on the C-terminal Avi tag)); assay: SPR ProteOn, Fab analyte on immobilized antigen-Fc
T5 construct: also called FolR3-Fc
Procedure: as §2

[8] = target: T6, human FolR2 on transfected HEK cells (human, UniProt P14207 17-230); assay: flow cytometry on transfected HEK cells
T6 construct: whole, on cells

[9] = target: T3, recombinant biotinylated monomeric Fc …; assay: SPR Biacore, single injection on immobilized antigen-Fc
Procedure: as §1
(§3) First the anti-FolR1 IgGs were analyzed by single injections (Table 1) to characterize their crossreactivity (to human, murine and cyno FolR1) and specificity (to human FolR1, human FolR2, human FolR3). Recombinant biotinylated monomeric Fc fusions of human, cynomolgus and murine Folate Receptor 1 (FolR1-Fc) or human Folate Receptor 2 and 3 (FolR2-Fc, FolR3-Fc) were directly coupled on a SA chip using the standard coupling instruction (Biacore, Freiburg/Germany). The immobilization level was about 300-400 RU. The IgGs were injected for 60 seconds at a concentration of 500 nM.

[10] = target: T4, recombinant biotinylated monomeric Fc …; assay: as above
Procedure: as §1, §3

[11] = target: T5, recombinant biotinylated monomeric Fc …; assay: as above
Procedure: as §1, §3

T6 sequence (P14207 17-230): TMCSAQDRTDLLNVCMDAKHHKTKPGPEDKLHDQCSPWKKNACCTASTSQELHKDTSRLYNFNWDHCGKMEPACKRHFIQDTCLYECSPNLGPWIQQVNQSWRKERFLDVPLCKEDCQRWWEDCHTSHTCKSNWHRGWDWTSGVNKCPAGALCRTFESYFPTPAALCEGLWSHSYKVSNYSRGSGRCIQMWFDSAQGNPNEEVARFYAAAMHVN

| Binder | Kd [3] [nM] | Kd [4] [nM] | binding result [5] | binding result [6] | binding result [7] | binding result [8] | binding result [9] | binding result [10] | also measured |
| --- | --- | --- | --- | --- | --- | --- | --- | --- | --- |
| B1 |  |  |  |  |  |  |  |  | Kd [1]: 67.3 nM; Kd [2]: 0.65 nM |
| B2 | 19.1 | 13.9 | no binding | no binding | no binding |  |  |  |  |
| B3 |  |  |  |  |  | no binding | no binding (tested: 500 nM) | no binding (tested: 500 nM) | binding result [11]: no binding (tested: 500 nM) |
| B4 | 68 | 90.9 | no binding | no binding | no binding |  |  |  |  |
| B5 |  |  |  |  |  | no binding | no binding (tested: 500 nM) | no binding (tested: 500 nM) |  |
